In US20060253917A1 (published 2006):

Experiments:
OsMADS5 aa 108-225 = target: T1, OsMADS5 aa 108-225 (Oryza sativa, UniProt A2Y9P0 108-225); assay: Y2H; output trait library
T1 construct: prey, AD fusion; also called PN20770
T1 sequence: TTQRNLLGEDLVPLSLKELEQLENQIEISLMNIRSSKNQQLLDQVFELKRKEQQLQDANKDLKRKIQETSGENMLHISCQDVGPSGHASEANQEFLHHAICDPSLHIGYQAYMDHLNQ
In short: (§1)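 Protein-protein interactions were detected in an automated, high-throughput yeast two-hybrid assay from Myriad Genetics Inc. (Salt Lake City, Utah), with a bait clone encoding a defined amino-acid fragment of a rice protein screened against the input trait or output trait rice prey library. Interacting proteins were identified by BLAST comparison of the encoding sequences of retrieved prey clones against databases.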

OsBAA81880 aa 24-203 = target: T2, OsBAA81880 aa 24-203 (Oryza sativa, UniProt Q9XJ66 24-203); assay: Y2H; output trait library
T2 construct: prey, AD fusion; also called PN20837
T2 sequence (Q9XJ66 24-203): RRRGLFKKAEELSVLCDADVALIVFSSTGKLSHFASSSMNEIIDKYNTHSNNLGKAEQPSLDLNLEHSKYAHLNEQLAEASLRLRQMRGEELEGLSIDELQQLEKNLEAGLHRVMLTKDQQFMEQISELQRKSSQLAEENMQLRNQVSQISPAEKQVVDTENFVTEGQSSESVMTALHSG
In short: as §1

OsMADS8 aa 79-248 = target: T3, OsMADS8 aa 79-248 (Oryza sativa, UniProt Q9SAR1 79-248); assay: Y2H; output trait library
T3 construct: prey, AD fusion; also called PN20778
T3 sequence: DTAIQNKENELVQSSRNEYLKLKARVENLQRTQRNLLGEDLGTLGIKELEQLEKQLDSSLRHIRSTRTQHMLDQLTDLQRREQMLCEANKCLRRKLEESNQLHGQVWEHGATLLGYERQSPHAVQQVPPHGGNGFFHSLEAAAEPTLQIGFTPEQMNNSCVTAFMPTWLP
In short: as §1

OsMADS1 aa 73-239 = target: T4, OsMADS1 aa 73-239 (Oryza sativa, UniProt A2XDY1 73-239); assay: Y2H; output trait library
T4 construct: prey, AD fusion; also called PN19788
T4 sequence: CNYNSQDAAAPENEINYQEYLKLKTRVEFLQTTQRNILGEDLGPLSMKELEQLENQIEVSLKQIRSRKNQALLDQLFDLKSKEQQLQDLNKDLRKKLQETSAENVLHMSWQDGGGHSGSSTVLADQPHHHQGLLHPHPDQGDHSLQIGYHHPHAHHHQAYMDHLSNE
In short: as §1

OsMADS45 aa 69-249 = target: T5, OsMADS45 aa 69-249 (Oryza sativa, UniProt P0C5B0 69-249); assay: Y2H; output trait library
T5 construct: prey, AD fusion; also called PN20231
T5 sequence: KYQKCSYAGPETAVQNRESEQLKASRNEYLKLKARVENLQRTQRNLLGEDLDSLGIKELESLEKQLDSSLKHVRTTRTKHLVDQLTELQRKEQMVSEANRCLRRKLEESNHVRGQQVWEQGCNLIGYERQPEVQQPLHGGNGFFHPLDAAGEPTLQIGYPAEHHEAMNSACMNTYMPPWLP
In short: as §1

OsMADS45 aa 98-249 = target: T6, OsMADS45 aa 98-249 (Oryza sativa, UniProt P0C5B0 98-249); assay: Y2H; output trait library
T6 construct: prey, AD fusion; also called PN20231
T6 sequence: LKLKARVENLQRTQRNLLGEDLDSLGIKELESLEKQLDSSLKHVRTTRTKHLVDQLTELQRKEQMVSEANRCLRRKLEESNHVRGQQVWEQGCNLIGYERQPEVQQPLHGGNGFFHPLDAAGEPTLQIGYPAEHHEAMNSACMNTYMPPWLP
In short: as §1

OsBAA81880 aa 2-168 = target: T7, OsBAA81880 aa 2-168 (Oryza sativa, UniProt Q9XJ66 2-168); assay: Y2H; output trait library
T7 construct: prey, AD fusion; also called PN20837; O. sativa MADS box-like protein
T7 sequence (Q9XJ66 2-168): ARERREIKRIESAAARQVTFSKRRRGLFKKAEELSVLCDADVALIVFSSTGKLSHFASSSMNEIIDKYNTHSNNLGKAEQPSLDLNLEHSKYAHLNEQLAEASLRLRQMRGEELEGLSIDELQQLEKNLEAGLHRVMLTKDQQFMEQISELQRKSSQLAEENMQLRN
In short: as §1

OsPN22834 aa 112-278 = target: T8, OsPN22834 aa 112-278 (Oryza sativa, UniProt Q01IK0 110-276); assay: Y2H; input trait library
T8 construct: prey, AD fusion; also called Novel protein PN22834, similar to Oshox6, fragment
T8 sequence: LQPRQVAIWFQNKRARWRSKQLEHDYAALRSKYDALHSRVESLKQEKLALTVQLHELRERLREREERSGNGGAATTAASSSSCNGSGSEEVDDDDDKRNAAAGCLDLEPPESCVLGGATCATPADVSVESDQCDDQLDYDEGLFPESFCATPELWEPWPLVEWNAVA
In short: as §1

OsMADS8 aa 75-248 = target: T9, OsMADS8 aa 75-248 (Oryza sativa, UniProt Q9SAR1 75-248); assay: Y2H; input trait library
T9 construct: prey, AD fusion; also called PN20778
T9 sequence: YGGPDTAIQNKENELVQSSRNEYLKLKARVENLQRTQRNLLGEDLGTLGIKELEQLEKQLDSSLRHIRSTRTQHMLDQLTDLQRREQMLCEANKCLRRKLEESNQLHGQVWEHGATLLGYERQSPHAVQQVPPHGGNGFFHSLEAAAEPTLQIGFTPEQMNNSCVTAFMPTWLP
In short: as §1

OsMADS17 aa 106-249 = target: T10, OsMADS17 aa 106-249 (Oryza sativa, UniProt Q7XUN2 106-249); assay: Y2H; input trait library
T10 construct: prey, AD fusion; also called PN20914; O. sativa MADS box transcription factor MADS17
T10 sequence: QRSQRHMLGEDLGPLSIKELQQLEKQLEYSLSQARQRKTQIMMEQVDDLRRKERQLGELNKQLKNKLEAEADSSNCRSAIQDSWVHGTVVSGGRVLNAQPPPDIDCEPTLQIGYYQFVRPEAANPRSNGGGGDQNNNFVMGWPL
In short: as §1

OsMADS1 aa 100-231 = target: T11, OsMADS1 aa 100-231 (Oryza sativa, UniProt A2XDY1 100-231); assay: Y2H; input trait library
T11 construct: prey, AD fusion; also called PN19788
T11 sequence: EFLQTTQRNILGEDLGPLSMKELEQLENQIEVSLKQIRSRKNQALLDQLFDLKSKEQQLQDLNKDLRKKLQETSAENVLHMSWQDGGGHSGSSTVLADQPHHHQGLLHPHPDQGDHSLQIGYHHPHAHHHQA
In short: as §1

OsMADS45 aa 96-249 = target: T12, OsMADS45 aa 96-249 (Oryza sativa, UniProt P0C5B0 96-249); assay: Y2H; input trait library
T12 construct: prey, AD fusion; also called PN20231
T12 sequence: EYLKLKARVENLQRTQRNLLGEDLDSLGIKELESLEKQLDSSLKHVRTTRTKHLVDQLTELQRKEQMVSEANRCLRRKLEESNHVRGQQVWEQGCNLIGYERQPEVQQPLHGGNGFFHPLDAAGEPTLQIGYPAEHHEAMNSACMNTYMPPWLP
In short: as §1

OsMADS5 aa 109-225 = target: T13, OsMADS5 aa 109-225 (Oryza sativa, UniProt A2Y9P0 109-225); assay: Y2H; output trait library
T13 construct: prey, AD fusion; also called PN20770
T13 sequence: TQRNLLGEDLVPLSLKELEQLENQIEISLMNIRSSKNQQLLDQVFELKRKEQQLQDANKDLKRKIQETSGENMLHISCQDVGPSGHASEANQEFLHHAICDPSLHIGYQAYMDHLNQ
In short: as §1

OsMADS6 aa 116-250 = target: T14, OsMADS6 aa 116-250 (Oryza sativa, UniProt Q6EU39 116-250); assay: Y2H; output trait library
T14 construct: prey, AD fusion; also called PN20233
T14 sequence: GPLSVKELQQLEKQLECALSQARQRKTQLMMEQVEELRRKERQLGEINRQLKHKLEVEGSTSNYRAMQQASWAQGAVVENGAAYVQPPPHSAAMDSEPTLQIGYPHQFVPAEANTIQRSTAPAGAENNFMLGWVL
In short: as §1

OsFDRMADS6 aa 1-186 = target: T15, OsFDRMADS6 aa 1-186 (Oryza sativa, UniProt P0C5B1 1-186); assay: Y2H; output trait library
T15 construct: prey, AD fusion; also called PN19766
T15 sequence: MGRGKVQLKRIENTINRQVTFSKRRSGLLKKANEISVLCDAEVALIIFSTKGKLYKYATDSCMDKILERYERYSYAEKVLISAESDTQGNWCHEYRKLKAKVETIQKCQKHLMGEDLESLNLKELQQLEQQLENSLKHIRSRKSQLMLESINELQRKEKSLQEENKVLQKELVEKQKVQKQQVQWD
In short: as §1

OsMADS1 aa 95-257 = target: T16, OsMADS1 aa 95-257 (Oryza sativa, UniProt A2XDY1 95-257); assay: Y2H; output trait library
T16 construct: prey, AD fusion; also called PN19788
T16 sequence: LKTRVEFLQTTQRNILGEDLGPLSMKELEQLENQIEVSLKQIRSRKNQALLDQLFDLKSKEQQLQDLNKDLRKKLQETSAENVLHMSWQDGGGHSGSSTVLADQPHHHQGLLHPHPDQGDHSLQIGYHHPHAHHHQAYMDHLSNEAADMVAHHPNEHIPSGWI
In short: as §1

OsFDRMADS8 aa 53-233 = target: T17, OsFDRMADS8 aa 53-233 (Oryza sativa, UniProt A2Z9Q7 53-233); assay: Y2H; output trait library
T17 construct: prey, AD fusion; also called PN20698
T17 sequence: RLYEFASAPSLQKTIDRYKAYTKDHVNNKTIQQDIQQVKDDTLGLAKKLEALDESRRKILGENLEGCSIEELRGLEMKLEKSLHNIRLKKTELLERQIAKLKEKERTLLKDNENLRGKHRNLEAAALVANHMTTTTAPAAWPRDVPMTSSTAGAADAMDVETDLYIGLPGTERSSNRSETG
In short: as §1

OsMADS8 aa 107-248 = target: T18, OsMADS8 aa 107-248 (Oryza sativa, UniProt Q9SAR1 107-248); assay: Y2H; output trait library
T18 construct: prey, AD fusion; also called PN20778; O. sativa MADS box protein MADS8
T18 sequence: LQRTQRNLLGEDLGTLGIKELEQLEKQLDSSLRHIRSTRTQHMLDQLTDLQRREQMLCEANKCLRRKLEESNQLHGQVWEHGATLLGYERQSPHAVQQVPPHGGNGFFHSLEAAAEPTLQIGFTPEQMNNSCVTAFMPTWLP
In short: as §1

OsMADS45 aa 75-249 = target: T19, OsMADS45 aa 75-249 (Oryza sativa, UniProt P0C5B0 75-249); assay: Y2H; output trait library
T19 construct: prey, AD fusion; also called PN20231
T19 sequence: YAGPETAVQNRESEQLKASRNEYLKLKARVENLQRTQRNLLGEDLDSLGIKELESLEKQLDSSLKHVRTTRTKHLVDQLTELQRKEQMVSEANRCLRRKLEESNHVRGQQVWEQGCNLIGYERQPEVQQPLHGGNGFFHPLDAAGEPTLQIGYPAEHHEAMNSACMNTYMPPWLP
In short: as §1

OsRAP1B aa 30-180 = target: T20, OsRAP1B aa 30-180 (Oryza sativa, UniProt Q10CQ1 30-180); assay: Y2H; input trait library
T20 construct: bait, Gal4 DBD fusion; also called PN20232
T20 sequence: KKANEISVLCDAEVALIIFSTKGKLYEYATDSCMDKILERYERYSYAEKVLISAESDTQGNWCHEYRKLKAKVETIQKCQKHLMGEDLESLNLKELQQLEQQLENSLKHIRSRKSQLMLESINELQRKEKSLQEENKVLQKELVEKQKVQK
In short: as §1

Measured: binding result

B1: OsRAP1B aa 125-235 (other)
chain: LQQLEQQLENSLKHIRSRKSQLMLESINELQRKEKSLQEENKVLQKELVEKQKVQKQQLQWDQTQPQTISSSSSFMMREALPTTNISNYPAAAGERIEDVPAGQPQHVRIG
notes: bait, Gal4 DBD fusion; also called PN20232
binds: OsMADS5 aa 108-225 | OsBAA81880 aa 24-203 | OsMADS8 aa 79-248 | OsMADS1 aa 73-239 | OsMADS45 aa 69-249 | OsMADS45 aa 98-249 | OsBAA81880 aa 2-168

B2: OsRAP1B aa 1-247 (other)
chain: MGRGKVQLKRIENKINRQVTFSKRRSGLLKKANEISVLCDAEVALIIFSTKGKLYEYATDSCMDKILERYERYSYAEKVLISAESDTQGNWCHEYRKLKAKVETIQKCQKHLMGEDLESLNLKELQQLEQQLENSLKHIRSRKSQLMLESINELQRKEKSLQEENKVLQKELVEKQKVQKQQLQWDQTQPQTISSSSSFMMREALPTTNISNYPAAAGERIEDVPAGQPQHVRIGLPPWMLSHING
notes: as for B1
not listed: OsMADS5 aa 108-225 | OsBAA81880 aa 24-203 | OsMADS8 aa 79-248 | OsMADS1 aa 73-239 | OsMADS45 aa 69-249 | OsMADS45 aa 98-249 | OsBAA81880 aa 2-168 | OsRAP1B aa 30-180
binds: all other assays above

B3: OsMADS5 aa 106-225 (other)
chain: LQTTQRNLLGEDLVPLSLKELEQLENQIEISLMNIRSSKNQQLLDQVFELKRKEQQLQDANKDLKRKIQETSGENMLHISCQDVGPSGHASEANQEFLHHAICDPSLHIGYQAYMDHLNQ
notes: prey, AD fusion; also called PN20770
binds: OsRAP1B aa 30-180
